The text below walks through data of US20250002588A1 (DIAGONAL THERAPEUTICS, published 2025).

For experiment [1], the target named is T1, ALK-1/BMPR-2 receptor pair of the PathHunter U2Os dimerization cells (DiscoverX 93-0962C3) (UniProt P37023 22-503; Q13873 27-1038). The experiment in a line: cell-based or functional assay.
The target in experiment [2] is T1, ALK-1/BMPR-2 receptor pair of the …. Description: cell-based or functional assay. This is another data set of the same source.

Like-named read-outs stand apart in the source and are kept apart here.

T1 sequence (P37023 22-503, chain 1 of 2): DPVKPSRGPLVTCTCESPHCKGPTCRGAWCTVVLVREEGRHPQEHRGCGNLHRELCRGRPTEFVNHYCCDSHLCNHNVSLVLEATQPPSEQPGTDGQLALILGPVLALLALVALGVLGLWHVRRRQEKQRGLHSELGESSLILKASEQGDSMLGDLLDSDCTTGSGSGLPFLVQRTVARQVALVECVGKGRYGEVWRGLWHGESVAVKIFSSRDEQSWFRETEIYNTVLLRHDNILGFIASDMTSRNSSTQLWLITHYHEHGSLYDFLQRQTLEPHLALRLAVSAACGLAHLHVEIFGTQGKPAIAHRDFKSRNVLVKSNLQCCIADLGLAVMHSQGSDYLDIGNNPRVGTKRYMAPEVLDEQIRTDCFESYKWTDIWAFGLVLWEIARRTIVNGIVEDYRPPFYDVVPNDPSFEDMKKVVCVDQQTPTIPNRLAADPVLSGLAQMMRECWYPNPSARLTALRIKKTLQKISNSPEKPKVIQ
T1 sequence (Q13873 27-1038, chain 2 of 2): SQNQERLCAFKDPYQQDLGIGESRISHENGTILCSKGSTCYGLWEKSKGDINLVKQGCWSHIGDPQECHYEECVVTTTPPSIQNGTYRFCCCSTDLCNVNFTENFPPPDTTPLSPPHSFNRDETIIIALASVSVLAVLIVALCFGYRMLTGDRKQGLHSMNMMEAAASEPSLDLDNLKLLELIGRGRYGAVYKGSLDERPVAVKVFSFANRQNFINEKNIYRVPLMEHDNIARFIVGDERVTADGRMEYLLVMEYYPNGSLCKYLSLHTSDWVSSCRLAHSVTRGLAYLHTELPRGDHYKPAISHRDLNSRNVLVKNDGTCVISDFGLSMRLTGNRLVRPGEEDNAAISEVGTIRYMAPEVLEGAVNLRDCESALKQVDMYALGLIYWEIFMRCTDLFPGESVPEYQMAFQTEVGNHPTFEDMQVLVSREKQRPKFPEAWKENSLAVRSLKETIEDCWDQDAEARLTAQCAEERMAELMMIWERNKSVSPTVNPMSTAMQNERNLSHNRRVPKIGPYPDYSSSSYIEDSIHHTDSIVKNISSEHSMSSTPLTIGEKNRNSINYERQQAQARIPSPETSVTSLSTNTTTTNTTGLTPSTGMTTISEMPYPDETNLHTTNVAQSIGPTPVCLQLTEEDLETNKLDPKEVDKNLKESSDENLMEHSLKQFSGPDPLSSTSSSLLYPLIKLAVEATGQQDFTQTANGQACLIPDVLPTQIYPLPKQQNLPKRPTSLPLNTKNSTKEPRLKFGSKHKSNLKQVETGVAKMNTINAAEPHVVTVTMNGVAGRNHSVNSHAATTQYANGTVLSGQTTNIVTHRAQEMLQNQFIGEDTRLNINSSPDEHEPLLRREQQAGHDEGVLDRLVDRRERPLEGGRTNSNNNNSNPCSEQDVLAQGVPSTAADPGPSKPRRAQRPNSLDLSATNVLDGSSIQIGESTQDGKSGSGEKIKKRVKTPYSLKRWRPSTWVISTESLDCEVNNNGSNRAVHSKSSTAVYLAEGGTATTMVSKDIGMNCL

B1: DGL945 (bispecific antibody, human IgG1, lambda)
heavy: EVQLLESGGGLVQPGGSLRLSCAASGFTFSDYYMTWIRQAPGKGLEWVSSISGGSTYYADSRKGRFTISRDNSENTLYLQMNSLRAEDTAVYYCARDFGVAGWFGQYGMDVWGQGTLVTVSSPLAPEVQLLESGGGLVQPGGSLRLSCAASGFTFSSYAMSWVRQAPGKGLEWVANINQDGSEKNYVDSMRGRFTISRDNSKNTLYLQMNSLRAEDTAVYYCAREFDYWGQGTLVTVSSASTKGPSVFPLAPSSKSTSGGTAALGCLVKDYFPEPVTVSWNSGALTSGVHTFPAVLQSSGLYSLSSVVTVPSSSLGTQTYICNVNHKPSNTKVDKKVEPKSCDKTHTCPPCPAPEAAGAPSVFLFPPKPKDTLYITREPEVTCVVVDVSHEDPEVKFNWYVDGVEVHNAKTKPREEQYNSTYRVVSVLTVLHQDWLNGKEYKCKVSNKALPAPIEKTISKAKGQPREPQVYTLPPSRDELTKNQVSLTCLVKGFYPSDIAVEWESNGQPENNYKTTPPVLDSDGSFFLYSKLTVDKSRWQQGNVFSCSVMHEALHNHYTQKSLSLSPG
light: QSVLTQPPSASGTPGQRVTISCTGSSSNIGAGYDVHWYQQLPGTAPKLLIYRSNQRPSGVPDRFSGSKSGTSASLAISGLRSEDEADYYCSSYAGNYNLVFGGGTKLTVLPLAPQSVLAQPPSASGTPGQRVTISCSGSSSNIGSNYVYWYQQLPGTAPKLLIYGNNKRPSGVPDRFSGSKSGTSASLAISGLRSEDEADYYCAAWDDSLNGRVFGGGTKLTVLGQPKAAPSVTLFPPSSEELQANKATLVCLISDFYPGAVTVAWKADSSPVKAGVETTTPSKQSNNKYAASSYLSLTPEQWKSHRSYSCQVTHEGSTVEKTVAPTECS
Take B1: the “% Emax BMP9” value in experiment [1] worked out at 78%.

B2: DGL947 (bispecific antibody, human IgG1, lambda)
heavy: EVQLLESGGGLVQPGGSLRLSCAASGFTFSDYYMNWIRQAPGKGLEWVSSISGGSTYYADSVKGRFTISRDNSENTLYLQMNSLRAEDTAVYYCARDFGVAGWFGQFGMDVWGQGTLVTVSSPLAPEVQLLESGGGLVQPGGSLRLSCAASGFTFSSYWMSWVRQAPGKGLEWVANINQDGSEKYYVDSMRGRFTISRDNSKNTLYLQMNSLRAEDTAVYYCAREYDYWGQGTLVTVSSASTKGPSVFPLAPSSKSTSGGTAALGCLVKDYFPEPVTVSWNSGALTSGVHTFPAVLQSSGLYSLSSVVTVPSSSLGTQTYICNVNHKPSNTKVDKKVEPKSCDKTHTCPPCPAPEAAGAPSVFLFPPKPKDTLYITREPEVTCVVVDVSHEDPEVKFNWYVDGVEVHNAKTKPREEQYNSTYRVVSVLTVLHQDWLNGKEYKCKVSNKALPAPIEKTISKAKGQPREPQVYTLPPSRDELTKNQVSLTCLVKGFYPSDIAVEWESNGQPENNYKTTPPVLDSDGSFFLYSKLTVDKSRWQQGNVFSCSVMHEALHNHYTQKSLSLSPG
light: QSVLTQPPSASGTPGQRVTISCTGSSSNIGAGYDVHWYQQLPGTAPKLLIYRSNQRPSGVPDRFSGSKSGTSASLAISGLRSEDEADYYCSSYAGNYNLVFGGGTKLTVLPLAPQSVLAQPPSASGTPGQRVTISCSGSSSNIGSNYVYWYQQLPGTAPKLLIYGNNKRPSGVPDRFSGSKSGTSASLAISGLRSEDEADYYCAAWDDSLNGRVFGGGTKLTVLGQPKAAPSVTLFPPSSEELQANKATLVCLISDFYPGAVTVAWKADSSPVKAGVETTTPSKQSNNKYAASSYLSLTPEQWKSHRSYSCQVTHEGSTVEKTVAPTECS
Turning to B2, the “% Emax BMP9” value in experiment [1] amounted to 47%.

B3: DGL873 (bispecific antibody)
chain 1: not shown
chain 2: EVQLLESGGGLVQPGGSLRLSCAASGFTFSDYYMTWIRQAPGKGLEWVSSISGGSTYYADSRKGRFTISRDNSENTLYLQMNSLRAEDTAVYYCARDFGVAGWFGQYGMDVWGQGTLVTVSSGGGGSGGGGSGGGGSQSVLTQPPSASGTPGQRVTISCTGSSSNIGAGYDVHWYQQLPGTAPKLLIYRSNQRPSGVPDRFSGSKSGTSASLAISGLRSEDEADYYCSSYAGNYNLVFGGGTKLTVLDKTHTCPPCPAPEAAGAPSVFLFPPKPKDTLMISRTPEVTCVVVDVSHEDPEVKFNWYVDGVEVHNAKTKPREEQYNSTYRVVSVLTVLHQDWLNGKEYKCKVSNKALPAPIEKTISKAKGQPREPQVCTLPPSRDELTKNQVSLSCAVKGFYPSDIAVEWESNGQPENNYKTTPPVLDSDGSFFLVSKLTVDKSRWQQGNVFSCSVMHEALHNHYTQKSLSLSPGWSHPQFEK
Consider B3, for which, in experiment [2], the “% Emax BMP9” value was found to be 60% and the “Emax (RLU)” value was determined as 1.55e+06 RLU.

B4: DGL879 (bispecific antibody)
chain 1: not shown
chain 2: EVQLLESGGGLVQPGGSLRLSCAASGFTFSDYYMTWIRQAPGKGLEWVSSISGGSTYYADSRKGRFTISRDNSENTLYLQMNSLRAEDTAVYYCARDFGVAGWFGQYGMDVWGQGTLVTVSSGGGGSGGGGSGGGGSQSVLTQPPSASGTPGQRVTISCTGSSSNIGAGYDVHWYQQLPGTAPKLLIYRSNQRPSGVPDRFSGSKSGTSASLAISGLRSEDEADYYCSSYAGLYNLVFGGGTKLTVLDKTHTCPPCPAPEAAGAPSVFLFPPKPKDTLMISRTPEVTCVVVDVSHEDPEVKFNWYVDGVEVHNAKTKPREEQYNSTYRVVSVLTVLHQDWLNGKEYKCKVSNKALPAPIEKTISKAKGQPREPQVCTLPPSRDELTKNQVSLSCAVKGFYPSDIAVEWESNGQPENNYKTTPPVLDSDGSFFLVSKLTVDKSRWQQGNVFSCSVMHEALHNHYTQKSLSLSPGWSHPQFEK
Consider B4, for which, in experiment [2], the “% Emax BMP9” value turned out to be 71% and the “Emax (RLU)” value amounted to 1.81e+06 RLU.

B5: DGL877 (bispecific antibody)
chain 1: not shown
chain 2: EVQLLESGGGLVQPGGSLRLSCAASGFTFSDYYMTWIRQAPGKGLEWVSSISGGSTYYADSRKGRFTISRDNSENTLYLQMNSLRAEDTAVYYCARDFGVAGWFGQYGMDVWGQGTLVTVSSGGGGSGGGGSGGGGSQSVLTQPPSASGTPGQRVTISCTGSASNIGAGYDVHWYQQLPGTAPKLLIYRSNQRPSGVPDRFSGSKSGTSASLAISGLRSEDEADYYCSSYAGNYNLVFGGGTKLTVLDKTHTCPPCPAPEAAGAPSVFLFPPKPKDTLMISRTPEVTCVVVDVSHEDPEVKFNWYVDGVEVHNAKTKPREEQYNSTYRVVSVLTVLHQDWLNGKEYKCKVSNKALPAPIEKTISKAKGQPREPQVCTLPPSRDELTKNQVSLSCAVKGFYPSDIAVEWESNGQPENNYKTTPPVLDSDGSFFLVSKLTVDKSRWQQGNVFSCSVMHEALHNHYTQKSLSLSPGWSHPQFEK
On to B5, for which, in experiment [2], the “% Emax BMP9” value is 76% and the “Emax (RLU)” value stood at 1.95e+06 RLU.

B6: DGL876 (bispecific antibody)
chain 1: not shown
chain 2: EVQLLESGGGLVQPGGSLRLSCAASGFTFSDYYMTWIRQAPGKGLEWVSSISGGSTYYADSRKGRFTISRDNSENTLYLQMNSLRAEDTAVYYCARDFGVAGWFGQYGMDVWGQGTLVTVSSGGGGSGGGGSGGGGSQSVLTQPPSASGTPGQRVTISCTGSSSNIGAGYDVHWYQQLPGTAPKLLIYRSNQRPSGVPDRFSGSKSGTSASLAISGLRSEDEADYYCSSYAGNYNLVFGGGTKLTVLDKTHTCPPCPAPEAAGAPSVFLFPPKPKDTLMISRTPEVTCVVVDVSHEDPEVKFNWYVDGVEVHNAKTKPREEQYNSTYRVVSVLTVLHQDWLNGKEYKCKVSNKALPAPIEKTISKAKGQPREPQVCTLPPSRDELTKNQVSLSCAVKGFYPSDIAVEWESNGQPENNYKTTPPVLDSDGSFFLVSKLTVDKSRWQQGNVFSCSVMHEALHNHYTQKSLSLSPGWSHPQFEK
For B6, in experiment [2], the “% Emax BMP9” value was 61% and the “Emax (RLU)” value turned out to be 1.57e+06 RLU.

B7: DGL874 (bispecific antibody)
chain 1: not shown
chain 2: EVQLLESGGGLVQPGGSLRLSCAASGFTFSDYYMTWIRQAPGKGLEWVSSISGGSTYYADSRKGRFTISRDNSENTLYLQMNSLRAEDTAVYYCARDFGVAGWFGQYGMDVWGQGTLVTVSSGGGGSGGGGSGGGGSQSVLTQPPSASGTPGQRVTISCTGSSSNIGAGYDVHWYQQLPGTAPKLLIYRSNQRPSGVPDRFSGSKSGTSASLAISGLRSEDEADYYCSSYAGNYNLVFGGGTKLTVLDKTHTCPPCPAPEAAGAPSVFLFPPKPKDTLMISRTPEVTCVVVDVSHEDPEVKFNWYVDGVEVHNAKTKPREEQYNSTYRVVSVLTVLHQDWLNGKEYKCKVSNKALPAPIEKTISKAKGQPREPQVCTLPPSRDELTKNQVSLSCAVKGFYPSDIAVEWESNGQPENNYKTTPPVLDSDGSFFLVSKLTVDKSRWQQGNVFSCSVMHEALHNHYTQKSLSLSPGWSHPQFEK
As for B7, in experiment [2], the “% Emax BMP9” value is 61% and the “Emax (RLU)” value amounted to 1.56e+06 RLU.

B8: DGL878 (bispecific antibody)
chain 1: not shown
chain 2: EVQLLESGGGLVQPGGSLRLSCAASGFTFSDYYMTWIRQAPGKGLEWVSSISGGSTYYADSRKGRFTISRDNSENTLYLQMNSLRAEDTAVYYCARDFGVAGWFGQYGMDVWGQGTLVTVSSGGGGSGGGGSGGGGSQSVLTQPPSASGTPGQRVTISCTGSSSNIGAGYDVHWYQQLPGTAPKLLIYRSNQRPAGVPDRFSGSKSGTSASLAISGLRSEDEADYYCSSYAGNYNLVFGGGTKLTVLDKTHTCPPCPAPEAAGAPSVFLFPPKPKDTLMISRTPEVTCVVVDVSHEDPEVKFNWYVDGVEVHNAKTKPREEQYNSTYRVVSVLTVLHQDWLNGKEYKCKVSNKALPAPIEKTISKAKGQPREPQVCTLPPSRDELTKNQVSLSCAVKGFYPSDIAVEWESNGQPENNYKTTPPVLDSDGSFFLVSKLTVDKSRWQQGNVFSCSVMHEALHNHYTQKSLSLSPGWSHPQFEK
As to B8, in experiment [2], the “% Emax BMP9” value was 73% and the “Emax (RLU)” value was 1.88e+06 RLU.

B9: DGL880 (bispecific antibody)
chain 1: not shown
chain 2: EVQLLESGGGLVQPGGSLRLSCAASGFTFSDYYMTWIRQAPGKGLEWVSSISGGSTYYADSRKGRFTISRDNSENTLYLQMNSLRAEDTAVYYCARDFGVAGWFGQYGMDVWGQGTLVTVSSGGGGSGGGGSGGGGSQSVLTQPPSASGTPGQRVTISCTGSASNIGAGYDVHWYQQLPGTAPKLLIYRSNQRPAGVPDRFSGSKSGTSASLAISGLRSEDEADYYCSSYAGLYNLVFGGGTKLTVLDKTHTCPPCPAPEAAGAPSVFLFPPKPKDTLMISRTPEVTCVVVDVSHEDPEVKFNWYVDGVEVHNAKTKPREEQYNSTYRVVSVLTVLHQDWLNGKEYKCKVSNKALPAPIEKTISKAKGQPREPQVCTLPPSRDELTKNQVSLSCAVKGFYPSDIAVEWESNGQPENNYKTTPPVLDSDGSFFLVSKLTVDKSRWQQGNVFSCSVMHEALHNHYTQKSLSLSPGWSHPQFEK
As for B9, in experiment [2], the “% Emax BMP9” value was determined as 66% and the “Emax (RLU)” value turned out to be 1.68e+06 RLU.

B10: DGL875 (bispecific antibody)
chain 1: not shown
chain 2: EVQLLESGGGLVQPGGSLRLSCAASGFTFSDYYMTWIRQAPGKGLEWVSSISGGSTYYADSRKGRFTISRDNSENTLYLQMNSLRAEDTAVYYCARDFGVAGWFGQYGMDVWGQGTLVTVSSGGGGSGGGGSGGGGSQSVLTQPPSASGTPGQRVTISCTGSSSNIGAGYDVHWYQQLPGTAPKLLIYRSNQRPSGVPDRFSGSKSGTSASLAISGLRSEDEADYYCSSYAGNYNLVFGGGTKLTVLDKTHTCPPCPAPEAAGAPSVFLFPPKPKDTLMISRTPEVTCVVVDVSHEDPEVKFNWYVDGVEVHNAKTKPREEQYNSTYRVVSVLTVLHQDWLNGKEYKCKVSNKALPAPIEKTISKAKGQPREPQVCTLPPSRDELTKNQVSLSCAVKGFYPSDIAVEWESNGQPENNYKTTPPVLDSDGSFFLVSKLTVDKSRWQQGNVFSCSVMHEALHNHYTQKSLSLSPGWSHPQFEK
Regarding B10, in experiment [2], the “% Emax BMP9” value stood at 65% and the “Emax (RLU)” value was found to be 1.66e+06 RLU.
